The labels stand for the following.
B1: HER-2 X EGFR X cMet TsAb_N_H (other)
heavy 1: EVQLVESGGGLVQPGGSLRLSCAASGYTFTSYWLHWVRQAPGKGLEWVGMIDPSNSDTRFNPNFKDRFTISADTSKNTAYLQMNSLRAEDTAVYYCATYRSYVTPLDYWGRGTLVTVSSASTKGPSVFPLAPSSKSTSGGTAALGCLVADYFPEPVTVSWNSGALTSGVHTFPAVLQSSGLYSLSSVVTVPSSSLGTQTYICNVNHKPSNTKVDERVEPKSCGGGGSGGGGSGGGGSGGGGSGGGGSQVQLVQSGAEVKKPGASVKVSCKASGYTFTSHWMHWVRYAPGQGLEWIGEFNPSNGRTNYNEKFKSKATMTVDTSTNTAYMELSSLRSEDTAVYYCASRDYDYDGRYFDYWGQGTLVTVSSASTKGPSVFPLAPCSKSTSGGTAALGCLVKDYFPEPVTVSWNSGALTSGVHTFPAVLQSSGLYSLSSVVTVPSSSLGTQTYICNVNHKPSNTKVDKKVEPDSGDKTHTCPPCPAPEAAGGPSVFLFPPKPKDTLMISRTPEVTCVVVDVSHEDPEVKFNWYVDGVEVHNAKTKPREEQYQSTYRVVSVLTVLHQDWLNGKEYKCKVSNKALPAPIEKTISKAKGQPREPQVYTLPPSRGDMTKNQVQLTCLVKGFYPSDIAVEWESNGQPENNYKTTPPVLDSDGSFFLASKLTVDKSRWQQGNVFSCSVMHEALHNHYTQKSLSLSPG
light 1: DIQMTQSPSSLSASVGDRVTITCSASSSVTYMYWYQRKPGKAPKLLIYDTSNLASGVPSRFSGSGSGTDYTFTISSLQPEDIATYYCQQWSSHIFTFGQGTKVEIKRTVAAPSVFIFPPSKEQLKSGTASVVCLLNNFYPREAKVQWKVDNALQSGNSQESVTEQDSKDSTYSLSSTLTLSKADYEKHKVYACEVTHQGLSSPVTKSFNRGEC
heavy 2: EVQLVESGGGLVQPGGSLRLSCAASGFTFTDYTMDWVRKAPGKGLEWVADVNPNSGGSIYNQEFKGRFTLSVDRSKNTLYLQMNSLRAEDTAVYYCARNLGPSFYFDYWGQGTLVTVSSASTKGPSVFPLAPSSKSTSGGTAALGCLVKDYFPEPVTVSWNSGALTSGVATGPAVLQSSGLYSLSSVVTVPSSSLGTQTYICNVNHKPSNTKVDKKVEPKSCDKTHTCPPCPAPEAAGGPSVFLFPPKPKDTLMISRTPEVTCVVVDVSHEDPEVKFNWYVDGVEVHNAKTKPREEQYQSTYRVVSVLTVLHQDWLNGKEYKCKVSNKALPAPIEKTISKAKGQPREPQVSTLPPSREEMTKNQVSLMCLVYGFYPSDIAVEWESNGQPENNYKTTPPVLDSDGSFFLYSVLTVDKSRWQQGNVFSCSVMHEALHNHYTQKSLSLSPG
light 2: RIQMTQSPSSLSASVGDRVTITCKASQDVSIGVAWYQDKPGKAPKLLIYSASYRYTGVPSRFSGSGSGTDFTLTISSLQPEDFATYYCQQYYIYPYTFGQGTKVEIKGQPKAAPSVTLFPPSSEELQANKATLVCYISDFYPGAVTVAWKADSSPVKAGVETTTPSKQSNNKYAAWSYLSLTPEQWKSHRSYSCQVTHEGSTVEKTVAPTEC
light 3: DIQMTQSPSSLSASVGDRVTITCKSSQSLLYTSSQKNYLAWYQQKPGDAPKLLIYWASTRESGVPSRFSGSGSGTDFTLTISSLQPEDFATYYCQQYYAYPWTFGQGTKVEIKRTVAAPSVFIFPPSDKQLKSGTARVVCLLNNFYPREAKVQWKVDNALQSGNSQESVTEQDSKDSTYSLISTLTLSKADYEKHKVYACEVTHQGLSSPVTKSFNRGEC
notes: Trispecific IgG-Fab antibody; the anti-cMet Fab is fused N-terminally through its heavy chain fragment
B2: HER-2 X EGFR X cMet TsAb_N_L (other)
heavy 1: DIQMTQSPSSLSASVGDRVTITCKSSQSLLYTSSQKNYLAWYQQKPGDAPKLLIYWASTRESGVPSRFSGSGSGTDFTLTISSLQPEDFATYYCQQYYAYPWTFGQGTKVEIKRTVAAPSVFIFPPSDKQLKSGTARVVCLLNNFYPREAKVQWKVDNALQSGNSQESVTEQDSKDSTYSLISTLTLSKADYEKHKVYACEVTHQGLSSPVTKSFNRGECGGGGSGGGGSGGGGSGGGGSGGGGSQVQLVQSGAEVKKPGASVKVSCKASGYTFTSHWMHWVRYAPGQGLEWIGEFNPSNGRTNYNEKFKSKATMTVDTSTNTAYMELSSLRSEDTAVYYCASRDYDYDGRYFDYWGQGTLVTVSSASTKGPSVFPLAPCSKSTSGGTAALGCLVKDYFPEPVTVSWNSGALTSGVHTFPAVLQSSGLYSLSSVVTVPSSSLGTQTYICNVNHKPSNTKVDKKVEPDSGDKTHTCPPCPAPEAAGGPSVFLFPPKPKDTLMISRTPEVTCVVVDVSHEDPEVKFNWYVDGVEVHNAKTKPREEQYQSTYRVVSVLTVLHQDWLNGKEYKCKVSNKALPAPIEKTISKAKGQPREPQVYTLPPSRGDMTKNQVQLTCLVKGFYPSDIAVEWESNGQPENNYKTTPPVLDSDGSFFLASKLTVDKSRWQQGNVFSCSVMHEALHNHYTQKSLSLSPG
light 1: B1 light 1
heavy 2: B1 heavy 2
light 2: B1 light 2
chain: EVQLVESGGGLVQPGGSLRLSCAASGYTFTSYWLHWVRQAPGKGLEWVGMIDPSNSDTRFNPNFKDRFTISADTSKNTAYLQMNSLRAEDTAVYYCATYRSYVTPLDYWGRGTLVTVSSASTKGPSVFPLAPSSKSTSGGTAALGCLVADYFPEPVTVSWNSGALTSGVHTFPAVLQSSGLYSLSSVVTVPSSSLGTQTYICNVNHKPSNTKVDERVEPKSC
notes: Trispecific IgG-Fab antibody; the anti-cMet Fab is fused N-terminally through its light chain
B3: HER-2 X EGFR X cMet TsAb_HHH (other)
heavy: EVQLVESGGGLVQPGGSLRLSCAASGFTFTDYTMDWVRKAPGKGLEWVADVNPNSGGSIYNQEFKGRFTLSVDRSKNTLYLQMNSLRAEDTAVYYCARNLGPSFYFDYWGQGTLVTVSSASTKGPSVFPLAPSSKSTSGGTAALGCLVKDYFPEPVTVSWNSGALTSGVATGPAVLQSSGLYSLSSVVTVPSSSLGTQTYICNVNHKPSNTKVDKKVEPKSCGGGGSGGGGSGGGGSQVQLVQSGAEVKKPGASVKVSCKASGYTFTSHWMHWVRYAPGQGLEWIGEFNPSNGRTNYNEKFKSKATMTVDTSTNTAYMELSSLRSEDTAVYYCASRDYDYDGRYFDYWGQGTLVTVSSASTKGPSVFPLAPCSKSTSGGTAALGCLVKDYFPEPVTVSWNSGALTSGVHTFPAVLQSSGLYSLSSVVTVPSSSLGTQTYICNVNHKPSNTKVDKKVEPDSGGGGGSGGGGSGGGGSEVQLVESGGGLVQPGGSLRLSCAASGYTFTSYWLHWVRQAPGKGLEWVGMIDPSNSDTRFNPNFKDRFTISADTSKNTAYLQMNSLRAEDTAVYYCATYRSYVTPLDYWGRGTLVTVSSASTKGPSVFPLAPSSKSTSGGTAALGCLVADYFPEPVTVSWNSGALTSGVHTFPAVLQSSGLYSLSSVVTVPSSSLGTQTYICNVNHKPSNTKVDERVEPKSCHHHHHHHH
light 1: B1 light 2
light 2: B1 light 1
light 3: B1 light 3
notes: Tandem Fab trispecific antibody without Fc

T2 sequence (P08581 25-932): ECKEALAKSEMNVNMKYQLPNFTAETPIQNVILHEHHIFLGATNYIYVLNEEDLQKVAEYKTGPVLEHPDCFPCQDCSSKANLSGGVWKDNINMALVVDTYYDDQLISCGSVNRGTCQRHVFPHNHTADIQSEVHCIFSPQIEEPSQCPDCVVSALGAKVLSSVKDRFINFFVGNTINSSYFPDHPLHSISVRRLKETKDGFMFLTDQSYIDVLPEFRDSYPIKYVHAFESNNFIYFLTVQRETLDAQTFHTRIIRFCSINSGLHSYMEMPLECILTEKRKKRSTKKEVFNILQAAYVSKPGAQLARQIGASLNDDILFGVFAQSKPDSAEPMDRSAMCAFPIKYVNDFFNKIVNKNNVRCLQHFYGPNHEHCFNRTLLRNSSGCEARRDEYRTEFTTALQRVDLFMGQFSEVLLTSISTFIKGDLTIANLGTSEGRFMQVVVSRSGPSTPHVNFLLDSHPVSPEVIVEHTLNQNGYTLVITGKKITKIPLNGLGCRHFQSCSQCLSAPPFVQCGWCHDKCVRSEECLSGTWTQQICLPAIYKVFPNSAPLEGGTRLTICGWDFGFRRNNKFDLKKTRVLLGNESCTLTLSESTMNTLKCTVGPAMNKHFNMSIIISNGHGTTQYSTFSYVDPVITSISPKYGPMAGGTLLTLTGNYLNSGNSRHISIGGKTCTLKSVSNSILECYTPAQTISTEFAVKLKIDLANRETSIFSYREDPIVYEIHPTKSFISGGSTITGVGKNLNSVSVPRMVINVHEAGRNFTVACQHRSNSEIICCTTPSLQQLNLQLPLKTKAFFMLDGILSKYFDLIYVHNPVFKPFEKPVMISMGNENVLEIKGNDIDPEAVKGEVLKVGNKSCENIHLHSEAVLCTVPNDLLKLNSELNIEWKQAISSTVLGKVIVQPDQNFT

The first test concerns the target T1, Soluble human EGFR ECD protein (human, UniProt P00533 25-645).
T1 construct: extracellular domain; His-tagged
In words: SPR, captured via anti-human kappa, soluble ECD injected.
In general, Kd refers to the concentration at which binding is half-saturated. In general, koff refers to the rate constant with which the complex falls apart. By kon is commonly meant a measure of how fast the partners come together. Lower therefore signals slower complex formation. As for B1, the Kd worked out at 13 nM, the koff came out at 0.0085 s⁻¹ and the kon turned out to be 680000 M⁻¹ s⁻¹.

Take B2: binding was put at a Kd of 13 nM, the koff was 0.009 s⁻¹ and the kon was found to be 720000 M⁻¹ s⁻¹.

Molecule B3 registered a Kd of 15 nM, a koff of 0.0055 s⁻¹ and a kon of 360000 M⁻¹ s⁻¹.

The next test concerns the target T2, Soluble human cMet extracellular domain (ECD) protein (human, UniProt P08581 25-932).
T2 construct: extracellular domain; His-tagged
Described as above.
On to B1, for which the Kd came out at 0.31 nM, the koff was 0.00016 s⁻¹ and the kon is 520000 M⁻¹ s⁻¹.

As to B2, the affinity, expressed as Kd, was 0.36 nM; the koff worked out at 0.00016 s⁻¹; the kon is 440000 M⁻¹ s⁻¹.

With B3, the dissociation constant Kd stood at 0.77 nM, the koff was found to be 0.00013 s⁻¹ and the kon came to 170000 M⁻¹ s⁻¹.

The target of a further test is T3, Soluble human HER-2 extracellular domain (ECD) protein (human, UniProt P04626 23-652).
T3 construct: extracellular domain; His-tagged
The description is as above.
With B1, binding was characterised by a dissociation constant (Kd) of 1.1 nM, the koff was 0.00026 s⁻¹ and the kon is 230000 M⁻¹ s⁻¹.

As to B2, the Kd is 0.9 nM, the koff worked out at 0.00024 s⁻¹ and the kon came to 260000 M⁻¹ s⁻¹.

The molecule B3 returned a Kd of 0.8 nM, a koff of 0.00022 s⁻¹ and a kon of 260000 M⁻¹ s⁻¹.

The record behind these values is patent publication US20240132626A1 (Eli Lilly, published 2024).
